Data taken from publication PMC11035697, “Phosphorylation of the F-BAR protein Hof1 drives septin ring splitting in budding yeast” (Nature Communications, 2024).

B1: MBP-Hof1-BFP-6His (natural protein, S. cerevisiae, UniProt Q05080 1-669, looked up)
chain: MSYSYEACFWDPNDNGVNILLGHISQGIRSCDSMILFFKQRSELEKDYARRLGAITGKLDKDIGTNMDYGKLNETFNVVLSVEKARAQSHSKQSEILFRQIYTDTKAFAANLQARYTTLSGKIERLRMDKFNKKKGCEVLQKKLQDAQIRFRDLQLNENNMIGAKRVEHNKRELLKWESNSQEYKVQLDVLKQEYKASQKFWIHEWAQLSCELQEMENARISFLQSKLQQFATSSMETYILEQTKMDMLTNHLNSFTAADEISTFSKENGTGRLKHKTSKGDMNSSANWAQMSSISTTSKKTESYMDNIRKLSSQLKETENKRKLASIDKYEKPLPSPEVTMATQFRNSTPVIRNETKVVANPTLSLRSSPVQLQSNVDDSVLRQKPDKPRPIVGEEQLKPDEDSKNPDEKGLMVHKRNQSLSSPSESSSSNPTDFSHIKKRQSMESMTTSVSSMANSIDDSQRFAKSWNSSNRKRKSMSHLQVPSSASSRSDDGGRTPNSAHNLNEDDYNTRRDTSTSTILFKPPVAVRGTSRGHTHRQSMIMQDSSNPIEDALYEMERIQSSSKPGTKTGNIMDERGVVRDRGITVTLPIVTSEGFPVIEYAKAMYPLIGNEAPGLANFHKGDYLLITEIVNKDWYKGEVYDNDRIDRNHRIGLIPYNFIQLLHQGL
notes: F-BAR protein Hof1, S. cerevisiae, residues 1-669 (mTagBFP fragment cloned into pBG2163); BFP amplified from pHPOM1-mTagBFP2; also called Hof1 tagged with blue fluorescent protein; pSP1950; source: E. coli BL21 (DE3) Rosetta, purified (Ni-NTA, amylose); not shown: MBP, N-terminal, kept; mTagBFP, C-terminal, kept
B2: Cdc11-Cdc12-Cdc3-Cdc10-Cdc10-Cdc3-Cdc12-Cdc11 septin octamer (complex, S. cerevisiae)
chain 1: MSGIIDASSALRKRKHLKRGITFTVMIVGQSGSGRSTFINTLCGQQVVDTSTTILLPTDTSTEIDLQLREETVELEDDEGVKIQLNIIDTPGFGDSLDNSPSFEIISDYIRHQYDEILLEESRVRRNPRFKDGRVHCCLYLINPTGHGLKEIDVEFIRQLGSLVNIIPVISKSDSLTRDELKLNKKLIMEDIDRWNLPIYNFPFDEDEISDEDYETNMYLRTLLPFAIIGSNEVYEMGGDVGTIRGRKYPWGILDVEDSSISDFVILRNALLISHLHDLKNYTHEILYERYRTEALSGESVAAESIRPNLTKLNGSSSSSTTTRRNTNPFKQSNNINNDVLNPASDMHGQSTGENNETYMTREEQIRLEEERLKAFEERVQQELLLKRQELLQREKELREIEARLEKEAKIKQEE
chain 2: MSAATATAAPVPPPVGISNLPNQRYKIVNEEGGTFTVMLCGESGLGKTTFINTLFQTVLKRADGQQHRQEPIRKTVEIDITRALLEEKHFELRVNVIDTPGFGDNVNNNKAWQPLVDFIDDQHDSYMRQEQQPYRTKKFDLRVHAVLYFIRPTGHGLKPIDIETMKRLSTRANLIPVIAKADTLTAQELQQFKSRIRQVIEAQEIRIFTPPLDADSKEDAKSGSNPDSAAVEHARQLIEAMPFAIVGSEKKFDNGQGTQVVARKYPWGLVEIENDSHCDFRKLRALLLRTYLLDLISTTQEMHYETYRRLRLEGHENTGEGNEDFTLPAIAPARKLSHNPRYKEEENALKKYFTDQVKAEEQRFRQWEQNIVNERIRLNGDLEEIQGKVKKLEEQVKSLQVKKSHLK
chain 3: MSLKEEQVSIKQDPEQEERQHDQFNDVQIKQESQDHDGVDSQYTNGTQNDDSERFEAAESDVKVEPGLGMGITSSQSEKGQVLPDQPEIKFIRRQINGYVGFANLPKQWHRRSIKNGFSFNLLCVGPDGIGKTTLMKTLFNNDDIEANLVKDYEEELANDQEEEEGQGEGHENQSQEQRHKVKIKSYESVIEENGVKLNLNVIDTEGFGDFLNNDQKSWDPIIKEIDSRFDQYLDAENKINRHSINDKRIHACLYFIEPTGHYLKPLDLKFMQSVYEKCNLIPVIAKSDILTDEEILSFKKTIMNQLIQSNIELFKPPIYSNDDAENSHLSERLFSSLPYAVIGSNDIVENYSGNQVRGRSYPWGVIEVDNDNHSDFNLLKNLLIKQFMEELKERTSKILYENYRSSKLAKLGIKQDNSVFKEFDPISKQQEEKTLHEAKLAKLEIEMKTVFQQKVSEKEKKLQKSETELFARHKEMKEKLTKQLKALEDKKKQLELSINSASPNVNHSPVPTKKKGFLR
chain 4: MDPLSSVQPASYVGFDTITNQIEHRLLKKGFQFNIMVVGQSGLGKSTLINTLFASHLIDSATGDDISALPVTKTTEMKISTHTLVEDRVRLNINVIDTPGFGDFIDNSKAWEPIVKYIKEQHSQYLRKELTAQRERFITDTRVHAILYFLQPNGKELSRLDVEALKRLTEIANVIPVIGKSDTLTLDERTEFRELIQNEFEKYNFKIYPYDSEELTDEELELNRSVRSIIPFAVVGSENEIEINGETFRGRKTRWSAINVEDINQCDFVYLREFLIRTHLQDLIETTSYIHYEGFRARQLIALKENANSRSSAHMSSNAIQR
notes: septin Cdc11, yeast; septin Cdc12, yeast; septin Cdc3, yeast; septin Cdc10, yeast; also called Cdc11-capped septin octamers; recombinant septin octamers; source: E. coli BL21 (DE3) Rosetta, co-expressed from pFM453 and pFM455, purified (amylose, thrombin cleavage of MBP, Ni-NTA); not shown: MBP, N-terminal, cleaved; His6, N-terminal, kept; copies: 2 + 2 + 2 + 2

Legend:
[1] = biological target: T1, eGFP-tagged Cdc11-capped septin octamer (S. cerevisiae, UniProt P32458 1-415; P32468 1-407; P32457 1-520; P25342 1-322); assay: fluorescence microscopy of purified proteins (colocalisation on septin bundles); 1:1 mix of eGFP-tagged and untagged septin octamers (50 nM) on PI(4,5)P2-containing supported lipid bilayers in 20 mM Tris-Cl pH 8, 30 mM NaCl, 2 mM MgCl2, GTP; Hof1-BFP mixed 1:4 with untagged Hof1 added; spinning disk microscopy; conditions: both partners purified
T1 construct: septin Cdc11, yeast; septin Cdc12, yeast; septin Cdc3, yeast; septin Cdc10, yeast; Always used as a 1:1 mix with the untagged octamer in the fluorescence experiments; also called eGFP-labelled septin octamers; GFP-tagged septin octamers; source: E. coli BL21 (DE3) Rosetta, co-expressed from pFM453 and pFM873, purified (amylose, thrombin cleavage of MBP, Ni-NTA); not shown: MBP, N-terminal, …

[2] = biological target: the molecule itself; assay: negative-stain transmission electron microscopy; septin octamers diluted in low salt buffer (20 mM Tris-Cl pH 8, 30 mM NaCl, 2 mM MgCl2, 40 µM GTP), polymerised at least 30 min at 4 °C, 180 nM final; 1% uranyl acetate; octamers to filaments

| Binder | binding result [1] | binding result [2] |
| --- | --- | --- |
| B1 | binds | – |
| B2 | – | binds |
